For one substance, stoichiometry N results are on record in doi:10.1101/2022.05.03.490496.

The target of this experiment is amino-terminal ∼1400 amino-acid segment of human MUC2 (human). As to the kind of experiment: western blot of disulfide-bonded dimers. On the technique in general: A western blot detects proteins with antibodies after separation by electrophoresis.

As usually defined, the stoichiometry N is the number of molecules, sites or subunits per partner or assembly. “amino-terminal ∼1400 amino-acid segment of human MUC2 (domain or fragment)”: the stoichiometry N was determined as 2.
